Reference: patent publication US20230257454A1 (STAIDSON BEIJING BIOPHARMACEUTICALS, published 2023)
Where two headings read alike, the source gives them in different places.

How the values were obtained:
[1] = target: T1, human C5a (source not stated) (human, UniProt P01031 678-751); assay: cell-based or functional assay
T1 sequence: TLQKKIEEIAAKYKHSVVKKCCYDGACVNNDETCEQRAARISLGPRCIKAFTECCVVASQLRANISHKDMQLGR

human recombinant C5a = target: T2, human recombinant C5a (human, UniProt P01031 678-751); assay: ELISA, plate coated with human rC5a, scFv titrated, OD410
T2 construct: Full-length human C5a; also called rC5a; human C5a
T2 sequence: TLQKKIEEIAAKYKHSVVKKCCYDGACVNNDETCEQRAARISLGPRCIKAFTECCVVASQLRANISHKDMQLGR
Experimental: Monoclonal scFv antibodies were selected and subjected to ligand binding assays. The binding assay was designed to identify scFv antibodies that bound human recombinant C5a or endogenous C5a. Briefly, a 96-well plate was coated with human rC5a or eC5a in PBS at 0.1 µg/well and left overnight at 4° C. Before loading the scFv antibodies, the plates were washed with TBST, blocked for 1-2 hours at 37° C. using 5% milk and washed again with TBST. Each scFv sample was first diluted to 10 µg/mL, and 150 µL was added to the first row of wells. The 10 µg/mL scFv samples were then serially diluted at a 1:3 ratio and added to the remaining wells. After incubating for 1 hour at 37° C., followed by washing with TBST 6 times, 100µl of the primary antibody and secondary antibody mixture (mouse anti-flag (1:2500) and anti-mouse FC-AP (1:2000)) was added to each well. After incubation for 1 hour under 37° C., the plate was washed 3 times using TBST. pNPP was then added at 50 µL/well and incubated for 10-20 minutes at 37° C. 50 µL 3 M NaOH was used to stop the reaction. The ELISA results (OD410) were then analyzed and the binding curves were generated by PRISM.

[2] = target: T1, human C5a (source not stated); assay: cell-based or functional assay; remark: listed apart in the source
[3] = target: T3, native full-length human complement component C5 (human, UniProt P01031 19-673; P01031 678-1676); assay: ELISA, plate coated with human native C5, full-length antibody titrated, OD410
T3 construct: mature; The native protein has two disulfide-linked chains (alpha and beta) made from one precursor; also called human native C5
T3 sequence (P01031 19-673 limits assumed, one chain of several): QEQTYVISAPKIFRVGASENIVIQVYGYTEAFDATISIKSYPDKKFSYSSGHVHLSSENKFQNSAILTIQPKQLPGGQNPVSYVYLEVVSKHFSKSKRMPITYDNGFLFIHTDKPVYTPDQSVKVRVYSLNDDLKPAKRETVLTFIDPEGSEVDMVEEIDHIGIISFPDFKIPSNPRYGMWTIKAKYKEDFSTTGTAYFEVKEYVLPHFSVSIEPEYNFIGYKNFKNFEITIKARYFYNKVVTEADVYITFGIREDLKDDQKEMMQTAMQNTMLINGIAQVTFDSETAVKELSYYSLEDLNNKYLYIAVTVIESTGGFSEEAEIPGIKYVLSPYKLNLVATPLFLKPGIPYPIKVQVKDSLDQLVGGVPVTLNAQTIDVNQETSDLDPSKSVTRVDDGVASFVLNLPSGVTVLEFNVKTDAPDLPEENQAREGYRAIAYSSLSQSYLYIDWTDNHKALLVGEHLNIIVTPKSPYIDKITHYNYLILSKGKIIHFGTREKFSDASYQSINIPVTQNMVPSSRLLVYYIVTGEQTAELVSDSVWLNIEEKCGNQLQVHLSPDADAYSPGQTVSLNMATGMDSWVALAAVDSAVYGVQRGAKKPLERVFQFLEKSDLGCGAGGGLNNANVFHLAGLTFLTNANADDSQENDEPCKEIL

human endogenous C5a = target: T4, human endogenous C5a (human, UniProt P01031 678-751, limits assumed); assay: SPR (Biacore T200), antibody on CM5 chip, antigen 0-10 nM
T4 construct: Endogenous human C5a; also called eC5a
T4 sequence: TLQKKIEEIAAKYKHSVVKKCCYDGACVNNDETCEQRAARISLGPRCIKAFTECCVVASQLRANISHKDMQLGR
Experimental: (§1) The affinities for eC5a and c5 at various concentrations were measured. […] The concentrations of 0.625 and 0 nM were repeated once. Using the SPR technology, the association and dissociation rates were measured, and binding affinity was determined.

[4] = target: T3, native full-length human complement …; assay: SPR (Biacore T200), antibody on CM5 chip, antigen 0-10 nM; SPR (Biacore T200), Cab05-IgG4 on CM5 chip, C5 at 0-10 nM: no signal, given only as a lower bound on Kd
Experimental: as §1

C5a-E32A = target: T5, C5a-E32A; assay: ELISA on the coated C5a protein, antibody titrated, OD410
T5 single chain: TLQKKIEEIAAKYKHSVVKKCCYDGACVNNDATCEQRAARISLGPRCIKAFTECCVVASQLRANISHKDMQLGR

C5a-R40A [5] = target: T6, C5a-R40A; assay: as above
T6 single chain: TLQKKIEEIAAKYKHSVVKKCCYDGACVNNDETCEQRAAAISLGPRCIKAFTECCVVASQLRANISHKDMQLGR

C5a-T33A [6] = target: T7, C5a-T33A; assay: as above
T7 single chain: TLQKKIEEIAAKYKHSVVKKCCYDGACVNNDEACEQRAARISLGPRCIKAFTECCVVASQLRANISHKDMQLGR

C5a-Q36A [7] = target: T8, C5a-Q36A; assay: as above
T8 single chain: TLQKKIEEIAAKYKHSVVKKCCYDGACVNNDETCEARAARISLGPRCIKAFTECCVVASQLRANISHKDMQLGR

C5a-R40A [8] = target: T6, C5a-R40A; assay: as above
C5a-T33A [9] = target: T7, C5a-T33A; assay: as above
C5a-Q36A [10] = target: T8, C5a-Q36A; assay: as above

B1: Cab05 scFv (scFv, V domains shown)
VH: EMQLVESGGGLVQPGGSLRLSCAASGFTFSDYYMQWVRQAPGKGPEWVGLIRNKAVGGTTQYAASVKGRFTISRDDSKNSVYLQMNSLKTEDTAVYYCVSRAGPPGLSWGQGVLVTVSS
VL: DIVMTQSPLSLPVTPGEPASISCRSSQSLLASDGYNYIDWYLQKPGQSPQLLIYGGSNRASGVPDRFSGSGSGTDFTLKISRVEAEDVGVYFCLQHRALPPTFGQGTKLEIK
notes: scFv
In the case of B1, the “ROS IC50” value [1] is reported as 1.56 nM, the “EC50 (read off the curve)” value (human recombinant C5a) is reported as roughly 0.03 mg/L and the “ROS IC50” value [2] is reported as 1.56 nM.

B2: Cab05-IgG4 (antibody, V domains shown)
VH: EMQLVESGGGLVQPGGSLRLSCAASGFTFSDYYMQWVRQAPGKGPEWVGLIRNKAVGGTTQYAASVKGRFTISRDDSKNSVYLQMNSLKTEDTAVYYCVSRAGPPGLSWGQGVLVTVSS
VL: DIVMTQSPLSLPVTPGEPASISCRSSQSLLASDGYNYIDWYLQKPGQSPQLLIYGGSNRASGVPDRFSGSGSGTDFTLKISRVEAEDVGVYFCLQHRALPPTFGQGTKLEIK
notes: Full-length human IgG4 with a human kappa or lambda light chain constant domain
B2 was tested, and the “EC50 (read off the curve)” value [3] was roughly 0.03 mg/L, the Kd (human endogenous C5a) was 0.105 nM and the koff (human endogenous C5a) was 4.22e-05 s⁻¹. It also gave a kon (human endogenous C5a) of 402000 M⁻¹ s⁻¹ and a Kd [4] greater than 100 nM.

B3: Cab44-IgG1 (antibody, V domains shown)
VH: EVQLVESGGGLVQPGGSLRLSCAASGFTFSNYYIQWVRQAPGKGPEWVGLIRNKAIGETTEFAASVKGRFTISRDDSKNSVYLQMNSLKTEDTAVYYCAGRLGPPGLTWGQGVLVTVSS
VL: DIVMTQSPLSLPVTPGEPASISCRSSQSLLATDGYEYLDWYLQKPGQSPQLLIYGASNRASGVPDRFSGSGSGTDFTLKISRVEAEDVGVYYCLQHKALPPTFGQGTKLEIK
notes: Full-length human IgG1
B3: binds (C5a-E32A); binds (C5a-R40A [5]); binds (C5a-T33A [6]). The binding result (C5a-Q36A [7]) was “binds” and the “ROS IC50” value [1] was 0.51 nM.

B4: Cab45-IgG1 (antibody, V domains shown)
VH: EVQLVESGGGLVQPGGSLRLSCAASGFTFSDYYIQWVRQAPGKGPEWVGLIRNKAVGGTTTYAASVKGRFTISRDDSKNSAYLQMNSLKTEDTAVYFCVSRAGPPGLSWGQGVLVTVSS
VL: DIVMTQSPLSLPVTPGEPASISCRSSQNLLATDGYTYLDWYLQKPGQSPQLLIYGGSKRASGVPDRFSGSGSGTDFTLKISRVEAEDVGVYYCLQHRALPPTFGQGTKLEIK
notes: Full-length human IgG1
With B4 the “ROS IC50” value [1] was 0.64 nM, the binding result (C5a-R40A [8]) was “binds” and the binding result (C5a-T33A [9]) was “binds”. B4: binds (C5a-Q36A [10]).
